The results in this text go back to the Human Domainome abundance scans (Beltran et al. 2025).

B1: Nuclear receptor subfamily 1 group D member 2, residues 103 to 171; numbered along this chain, Q14995 (parent)
chain: CKVCGDVASGFHYGVHACEGCKGFFRRSIQQNIQYKKCLKNENCSIMRMNRNRCQQCRFKKCLSVGMSR

± gives the uncertainty stated by the source.

The data set covers variants of B1. The data set is described as follows: abundance fitness (aPCA) (normalised: wild type 0, dead -1); higher = more abundant; growth selection in yeast, the domain comes from the species named. The settings on record: Homo sapiens.
With CKVCGDVASGFHYDVHACEGCKGFFRRSIQQNIQYKKCLKNENCSIMRMNRNRCQQCRFKKCLSVGMSR, the abundance fitness is -0.579 ± 0.49. As for CKVCGDVASGFHYSVHACEGCKGFFRRSIQQNIQYKKCLKNENCSIMRMNRNRCQQCRFKKCLSVGMSR, the abundance fitness was -0.291 ± 0.11. Next, CKVCGDVASGFHYLVHACEGCKGFFRRSIQQNIQYKKCLKNENCSIMRMNRNRCQQCRFKKCLSVGMSR: -0.898 ± 0.18. The value for CKVCGDVASGFHYAVHACEGCKGFFRRSIQQNIQYKKCLKNENCSIMRMNRNRCQQCRFKKCLSVGMSR was -0.871 ± 0.23; that for CKVCGDVASGFHYFVHACEGCKGFFRRSIQQNIQYKKCLKNENCSIMRMNRNRCQQCRFKKCLSVGMSR was -0.558 ± 0.41.

Consider CKVCGDVASGFHYWVHACEGCKGFFRRSIQQNIQYKKCLKNENCSIMRMNRNRCQQCRFKKCLSVGMSR, for which the abundance fitness was -0.878 ± 0.22. Next, CKVCGDVASGFHYMVHACEGCKGFFRRSIQQNIQYKKCLKNENCSIMRMNRNRCQQCRFKKCLSVGMSR: -0.759 ± 0.2; CKVCGDVASGFHYPVHACEGCKGFFRRSIQQNIQYKKCLKNENCSIMRMNRNRCQQCRFKKCLSVGMSR: -0.835 ± 0.24. Next, CKVCGDVASGFHYTVHACEGCKGFFRRSIQQNIQYKKCLKNENCSIMRMNRNRCQQCRFKKCLSVGMSR: -0.828 ± 0.38; CKVCGDVASGFHYGDHACEGCKGFFRRSIQQNIQYKKCLKNENCSIMRMNRNRCQQCRFKKCLSVGMSR: -0.746 ± 0.33.

Regarding CKVCGDVASGFHYGYHACEGCKGFFRRSIQQNIQYKKCLKNENCSIMRMNRNRCQQCRFKKCLSVGMSR, the abundance fitness was -0.492 ± 0.38. The value for CKVCGDVASGFHYGPHACEGCKGFFRRSIQQNIQYKKCLKNENCSIMRMNRNRCQQCRFKKCLSVGMSR was -0.67 ± 0.094. The value for CKVCGDVASGFHYGMHACEGCKGFFRRSIQQNIQYKKCLKNENCSIMRMNRNRCQQCRFKKCLSVGMSR was -0.753 ± 0.15; that for CKVCGDVASGFHYGLHACEGCKGFFRRSIQQNIQYKKCLKNENCSIMRMNRNRCQQCRFKKCLSVGMSR was -0.3 ± 0.1. Consider CKVCGDVASGFHYGCHACEGCKGFFRRSIQQNIQYKKCLKNENCSIMRMNRNRCQQCRFKKCLSVGMSR, for which the abundance fitness is -0.623 ± 0.21. Next, CKVCGDVASGFHYGNHACEGCKGFFRRSIQQNIQYKKCLKNENCSIMRMNRNRCQQCRFKKCLSVGMSR: -0.954 ± 0.35. Turning to CKVCGDVASGFHYGTHACEGCKGFFRRSIQQNIQYKKCLKNENCSIMRMNRNRCQQCRFKKCLSVGMSR, the abundance fitness was -0.961 ± 0.47. Regarding CKVCGDVASGFHYGEHACEGCKGFFRRSIQQNIQYKKCLKNENCSIMRMNRNRCQQCRFKKCLSVGMSR, the abundance fitness is -0.679 ± 0.17. The value for CKVCGDVASGFHYGRHACEGCKGFFRRSIQQNIQYKKCLKNENCSIMRMNRNRCQQCRFKKCLSVGMSR was -0.819 ± 0.1; that for CKVCGDVASGFHYGQHACEGCKGFFRRSIQQNIQYKKCLKNENCSIMRMNRNRCQQCRFKKCLSVGMSR was -0.744 ± 0.2; that for CKVCGDVASGFHYGSHACEGCKGFFRRSIQQNIQYKKCLKNENCSIMRMNRNRCQQCRFKKCLSVGMSR was -0.954 ± 0.18.

With CKVCGDVASGFHYGIHACEGCKGFFRRSIQQNIQYKKCLKNENCSIMRMNRNRCQQCRFKKCLSVGMSR, the abundance fitness is -0.327 ± 0.16. Next, CKVCGDVASGFHYGGHACEGCKGFFRRSIQQNIQYKKCLKNENCSIMRMNRNRCQQCRFKKCLSVGMSR: -0.546 ± 0.08; CKVCGDVASGFHKGVHACEGCKGFFRRSIQQNIQYKKCLKNENCSIMRMNRNRCQQCRFKKCLSVGMSR: -0.491 ± 0.1; CKVCGDVASGFHFGVHACEGCKGFFRRSIQQNIQYKKCLKNENCSIMRMNRNRCQQCRFKKCLSVGMSR: 0.059 ± 0.089. As for CKVCGDVASGFHQGVHACEGCKGFFRRSIQQNIQYKKCLKNENCSIMRMNRNRCQQCRFKKCLSVGMSR, the abundance fitness is -0.615 ± 0.13. Next, CKVCGDVASGFHTGVHACEGCKGFFRRSIQQNIQYKKCLKNENCSIMRMNRNRCQQCRFKKCLSVGMSR: -0.572 ± 0.089; CKVCGDVASGFHHGVHACEGCKGFFRRSIQQNIQYKKCLKNENCSIMRMNRNRCQQCRFKKCLSVGMSR: -0.145 ± 0.15; CKVCGDVASGFHEGVHACEGCKGFFRRSIQQNIQYKKCLKNENCSIMRMNRNRCQQCRFKKCLSVGMSR: -0.099 ± 0.093. Next, CKVCGDVASGFHLGVHACEGCKGFFRRSIQQNIQYKKCLKNENCSIMRMNRNRCQQCRFKKCLSVGMSR: -0.453 ± 0.078. As for CKVCGDVASGFHSGVHACEGCKGFFRRSIQQNIQYKKCLKNENCSIMRMNRNRCQQCRFKKCLSVGMSR, the abundance fitness was -0.576 ± 0.071. Next, CKVCGDVASGFHIGVHACEGCKGFFRRSIQQNIQYKKCLKNENCSIMRMNRNRCQQCRFKKCLSVGMSR: -0.73 ± 0.12; CKVCGDVASGFHVGVHACEGCKGFFRRSIQQNIQYKKCLKNENCSIMRMNRNRCQQCRFKKCLSVGMSR: -0.528 ± 0.087; CKVCGDVASGFHWGVHACEGCKGFFRRSIQQNIQYKKCLKNENCSIMRMNRNRCQQCRFKKCLSVGMSR: -0.152 ± 0.065. Next, CKVCGDVASGFHCGVHACEGCKGFFRRSIQQNIQYKKCLKNENCSIMRMNRNRCQQCRFKKCLSVGMSR: -0.496 ± 0.1; CKVCGDVASGFHMGVHACEGCKGFFRRSIQQNIQYKKCLKNENCSIMRMNRNRCQQCRFKKCLSVGMSR: -0.732 ± 0.16. CKVCGDVASGFHAGVHACEGCKGFFRRSIQQNIQYKKCLKNENCSIMRMNRNRCQQCRFKKCLSVGMSR: the abundance fitness is -0.459 ± 0.09. The value for CKVCGDVASGFHPGVHACEGCKGFFRRSIQQNIQYKKCLKNENCSIMRMNRNRCQQCRFKKCLSVGMSR was -0.89 ± 0.16; that for CKVCGDVAYGFHYGVHACEGCKGFFRRSIQQNIQYKKCLKNENCSIMRMNRNRCQQCRFKKCLSVGMSR was -0.49 ± 0.4.
